# In paper PMC2119758:
# Molecular target: rabbit muscle F-actin (polymerized rabbit muscle actin) (rabbit) (UniProt P68135)
# Assay: co-sedimentation
stoichiometry N (actin monomers per GST.p80),Substance,fold increase of affinity against GST.p80
–,bacterially expressed cortactin (p80 residues 55-526) after removal of GST with thrombin (domain or fragment),2 fold
14,GST.p80 fusion protein (cortactin p80 residues 55-526) (domain or fragment),–
